The values below come from US20230287125A1 (LEPU BIOPHARMA, published 2023).

In test [1] the target is PD-L1 on PD-L1 target cells (Homo sapiens (Human)) (UniProt Q9NZQ7). Briefly: cell-based or functional assay.
In a further test the target is rat TGF-β protein (rat). Briefly: ELISA, coated rat TGF-β. On the technique in general: ELISA stands for enzyme-linked immunosorbent assay.
Test [2] addresses human TGF-β protein (human) (UniProt P01137). Briefly: cell-based or functional assay.
Test [3] has as its target mouse TGF-β protein (mouse). In words: ELISA, coated mouse TGF-β.
The target in test [4] is human TGF-β protein (human) (UniProt P01137). Briefly: ELISA, coated human TGF-β.
Chain of human TGF-β protein (human) (P01137 279-390 limits assumed): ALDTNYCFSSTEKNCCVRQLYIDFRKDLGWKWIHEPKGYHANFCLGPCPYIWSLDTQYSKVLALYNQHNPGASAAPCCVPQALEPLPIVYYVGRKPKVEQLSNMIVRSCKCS
Test [5] concerns the target cynomolgus TGF-β protein (cynomolgus). Briefly: ELISA, coated cynomolgus TGF-β.
Test [6] concerns the target T1, human PD-L1-his tag protein (human, UniProt Q9NZQ7 19-238).
T1 construct: also called human PD-L1-His protein; recombinant PD-L1 protein; not shown: his tag
In words: ELISA, coated human PD-L1-His.

Another test concerns the target rat PD-L1 protein (rat, UniProt D4AE25 19-239). In words: ELISA, coated rat PD-L1. The protocol:
(§1) ELISA testing was carried out to evaluate the binding of chimeric antibodies to human, mouse, rat, and cynomolgus PD-L1, respectively.
(§2) Briefly, microtiter plates were coated with human, mouse, rat and cynomolgus PD-L1 proteins at 0.5 μg/ml in PBS, 100 μl/well at 4° C. overnight, then blocked with 150 μl/well of 1% BSA. Three-fold dilutions of chimeric antibodies starting from 10 μg/ml were added to each well and incubated for 1 hour at 37° C. The plates were washed with PBS/Tween and then incubate with mouse-anti-human IgG Fab antibody conjugated with Horse Radish Peroxidase (HRP) for 30 mins at 37° C. After washing, the plates were developed with TMB substrate and analyzed by spectrophotometer at OD 450 nm.

Another test concerns the target mouse PD-L1 protein (mouse, UniProt Q9EP73 19-239). Briefly: ELISA, coated mouse PD-L1. The protocol:
as §1, §2

A further test has as its target cynomolgus PD-L1 protein (cynomolgus, UniProt G7PSE7 19-238). Briefly: ELISA, coated cynomolgus PD-L1. The protocol: as §1, §2
For test [7], the target named is T1, human PD-L1-his tag protein. Briefly: SPR (Biacore), affinity ranking, PDL1-His. Background: SPR reads the build-up and loss of mass on a sensor chip optically.
The target of test [8] is T2, human PD-L1 over-expressed on CHOK1 cells (human, UniProt Q9NZQ7 19-290).
T2 construct: whole, on cells; also called PDL1-CHOK1 cells
T2 sequence (Q9NZQ7 19-290): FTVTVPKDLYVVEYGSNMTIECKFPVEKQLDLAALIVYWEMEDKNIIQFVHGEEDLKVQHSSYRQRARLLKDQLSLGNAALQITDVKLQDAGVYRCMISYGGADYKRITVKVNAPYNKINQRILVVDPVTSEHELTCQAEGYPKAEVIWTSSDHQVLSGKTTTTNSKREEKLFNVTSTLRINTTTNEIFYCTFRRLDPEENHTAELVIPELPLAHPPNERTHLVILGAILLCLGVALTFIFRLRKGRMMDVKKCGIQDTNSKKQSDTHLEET
Briefly: flow cytometry (MFI) on PDL1-CHOK1 cells; upper right panel. How it is done: (§3) To evaluate the antigen binding property, the humanized antibodies were analyzed for their binding to PD-L1 overexpressed on mammalian cells by FACS. Briefly, PDL1-CHOK1 cells were firstly incubated with 3-fold serious diluted humanized antibodies starting at 15 μg/ml at 4° C. for 40 mins. After washed by PBS, the Alexa Fluor® 647 AffiniPure Goat Anti-Human IgG (H+L) antibody was added to each well and incubated at 4° C. for 30 mins. The MFI of Alexa Fluor® 647 was evaluated by FACSCanto.
For orientation: Flow cytometry measures light scatter and fluorescence of single cells or particles in a stream.

The target in test [9] is T1, human PD-L1-his tag protein. In words: SPR (Biacore T200), mAb captured on Protein A chip, PD-L1-his injected. The protocol:
The binding of the humanized antibodies to recombinant PD-L1 protein (human PD-L1-his tag) was tested by Biacore using a capture method. […] A serial dilution of human PD-L1-his tag protein was injected over captured antibody for 2 mins at a flow rate of 30 μl/min. The antigen was allowed to dissociate for 1500 s. All the experiment were carried out on a Biacore T200.

For test [10], the target named is T3, human PD-L1-Fc protein (human, UniProt Q9NZQ7 19-238).
T3 construct: coating antigen of the ELISAs; also called rhPD-L1-Fc; not shown: Fc
T3 sequence (Q9NZQ7 19-238 limits assumed): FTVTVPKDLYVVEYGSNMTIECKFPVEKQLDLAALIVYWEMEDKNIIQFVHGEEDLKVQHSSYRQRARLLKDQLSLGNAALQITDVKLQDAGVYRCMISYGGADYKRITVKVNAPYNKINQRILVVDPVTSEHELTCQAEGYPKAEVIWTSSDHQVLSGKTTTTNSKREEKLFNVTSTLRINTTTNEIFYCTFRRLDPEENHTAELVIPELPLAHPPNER
Briefly: ELISA, antibody titrated on coated human PD-L1-Fc, OD 450nm; upper right panel. How it is done:
as §2, with “To evaluate antigen binding activity, the humanized antibodies were subjected to ELISA test. Briefly,” for “Briefly,”, “with human PD-L1-Fc protein” for “with human, mouse, rat and cynomolgus PD-L1 proteins”, “with 200” for “with 150”, “of humanized” for “of chimeric”, “then incubated” for “then incubate”, “for 1 hour” for “for 30 mins”

For test [11], the target named is T3, human PD-L1-Fc protein. In words: receptor blocking ELISA: coated human PD-L1-Fc, blocked ligand biotin-labeled human PD-1-Fc (Bio-PD1), OD 450nm; middle right panel. The protocol: (§4) Briefly, microtiter plates were coated with human PD-L1-Fc protein at 0.5 μg/ml in PBS, 100 μl/well at 4° C. overnight, then blocked with 150 μl/well of 1% BSA at 37° C. for 2 hours. […] The plates were washed with PBS/Tween and then incubated with Streptavidin-HRP for 10 mins at 37° C. After washing, the plates were developed with TMB substrate and analyzed by spectrophotometer at OD 450 nm.

Test [12] has as its target T3, human PD-L1-Fc protein. In words: receptor blocking ELISA: coated human PD-L1-Fc, blocked ligand biotin-labeled human CD80-Fc (Bio-CD80), OD 450nm; middle right panel. The protocol: as §4
Test [13] concerns the target T3, human PD-L1-Fc protein. In words: ELISA, antibody titrated on coated human PD-L1-Fc, OD 450nm; lower right panel. The protocol: as §2, with “To evaluate antigen binding activity, the humanized antibodies were subjected to ELISA test. Briefly,” for “Briefly,”, “with human PD-L1-Fc protein” for “with human, mouse, rat and cynomolgus PD-L1 proteins”, “with 200” for “with 150”, “of humanized” for “of chimeric”, “then incubated” for “then incubate”, “for 1 hour” for “for 30 mins”

The target of test [14] is T3, human PD-L1-Fc protein. Briefly: receptor blocking ELISA: coated human PD-L1-Fc, blocked ligand biotin-labeled human PD-1-Fc (Bio-PD1), OD 450nm [cont'd]. The protocol: as §4
Test [15] has as its target T3, human PD-L1-Fc protein. In words: receptor blocking ELISA: coated human PD-L1-Fc, blocked ligand biotin-labeled human CD80-Fc (Bio-CD80), OD 450nm [cont'd]. The protocol: as §4
The target of test [16] is T2, human PD-L1 over-expressed on CHOK1 …. Briefly: flow cytometry (MFI) on PDL1-CHOK1 cells; lower right panel. The protocol: as §3
The target of test [17] is T3, human PD-L1-Fc protein. In words: receptor blocking ELISA: coated human PD-L1-Fc, blocked ligand biotin-labeled human PD-1-Fc (Bio-PD1), OD 450nm; lower left panel. The protocol: as §4
In test [18] the target is T3, human PD-L1-Fc protein. Briefly: receptor blocking ELISA: coated human PD-L1-Fc, blocked ligand biotin-labeled human CD80-Fc (Bio-CD80), OD 450nm; lower left panel. How it is done: as §4
The target of test [19] is T2, human PD-L1 over-expressed on CHOK1 …. In words: flow cytometry (MFI) on PDL1-CHOK1 cells; upper left panel. How it is done:
as §3

For test [20], the target named is T3, human PD-L1-Fc protein. In words: ELISA, antibody titrated on coated human PD-L1-Fc, OD 450nm; lower left panel. How it is done: as §2, with “To evaluate antigen binding activity, the humanized antibodies were subjected to ELISA test. Briefly,” for “Briefly,”, “with human PD-L1-Fc protein” for “with human, mouse, rat and cynomolgus PD-L1 proteins”, “with 200” for “with 150”, “of humanized” for “of chimeric”, “then incubated” for “then incubate”, “for 1 hour” for “for 30 mins”

Positions count from the first letter of the chain named.

The term EC50 denotes the concentration needed to bring the measured effect to its halfway point. Broadly, the Kd is the concentration at which binding is half-saturated. Higher therefore signals a looser complex. For orientation: koff means a measure of how fast the partners let go of each other. A high value points to a short-lived complex. The kon is the second-order rate constant of association. The low end stands for slow association, the high end for fast association. One may read the IC50 as the concentration at which inhibition is half-maximal.

T1 sequence (Q9NZQ7 19-238 limits assumed): as above
Chain of PD-L1 on PD-L1 target cells (Homo sapiens (Human)) (Q9NZQ7 19-290 limits assumed): as the sequence (Q9NZQ7 19-290) above
Chain of rat PD-L1 protein (D4AE25 entry or part of it limits assumed): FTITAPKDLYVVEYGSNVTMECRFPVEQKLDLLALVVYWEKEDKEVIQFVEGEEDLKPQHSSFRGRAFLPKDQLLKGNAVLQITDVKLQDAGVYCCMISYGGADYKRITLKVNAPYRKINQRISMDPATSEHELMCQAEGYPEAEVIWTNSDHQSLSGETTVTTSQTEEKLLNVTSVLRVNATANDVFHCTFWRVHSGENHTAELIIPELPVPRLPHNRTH
Chain of cynomolgus TGF-β protein (cynomolgus) (P09533 279-390): as the sequence (P01137 279-390 limits assumed) above
Chain of cynomolgus PD-L1 protein (G7PSE7 entry or part of it): as the sequence (Q9NZQ7 19-238 limits assumed) above, with A33T, A34S, S62N, R68Q, Q82R, F173L, T185A, T192I, H215L counted along it
Chain of rat TGF-β protein (rat) (P17246 279-390): as the sequence (P01137 279-390 limits assumed) above, with A75S counted along it
Chain of mouse TGF-β protein (mouse) (P04202 279-390): as the sequence (P01137 279-390 limits assumed) above, with A75S counted along it
Chain of mouse PD-L1 protein (Q9EP73 19-239 limits assumed): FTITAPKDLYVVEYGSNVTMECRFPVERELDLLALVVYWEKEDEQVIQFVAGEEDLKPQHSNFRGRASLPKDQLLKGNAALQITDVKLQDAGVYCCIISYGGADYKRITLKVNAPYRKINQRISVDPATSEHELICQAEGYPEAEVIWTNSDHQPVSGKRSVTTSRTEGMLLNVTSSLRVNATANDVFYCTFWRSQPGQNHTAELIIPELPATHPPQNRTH

Regarding “MPDL3280A (Atezolizumab), Human IgG1 (N297A)-Fc (antibody)”, the EC50, NFAT-RE-mediated luminescence, PD1 effector cells co-cultured with PD-L1 target cells in test [1] was found to be 133 pM.

For M7824 (bintrafusp alfa), the EC50 with rat TGF-β protein (rat) amounted to 0.124 µg/mL; in [3], 0.0462 µg/mL; in [4], 0.0434 µg/mL; in [5] it was 0.0397 µg/mL; in test [6], 0.0237 µg/mL; with rat PD-L1 protein it was 0.0143 µg/mL. Further, the EC50 is 0.0106 µg/mL with mouse PD-L1 protein and 0.0256 µg/mL with cynomolgus PD-L1 protein. The molecule further had an EC50, NFAT-RE-mediated luminescence, PD1 effector cells co-cultured with PD-L1 target cells in test [1] of 850 pM. Also, the IC50, TGF-β SBE luciferase reporter assay in 293 cells in [2] was 66.9 pM.

B1: Hu67F3G7-7 (antibody, V domains shown)
VH: EVQLVQSGAEVKKPGASVKVSCKASGYTFTDFWVSWVRQAPGQGLEWMGEIYPNSGVSRYNEKFKGRVTMTVDKSISTAYMELSRLRSDDTAVYYCTKYFGYTYWFGYWGQGTLVTVSS
VL: DTVLTQSPSSLSASVGDRVTITCRASKSVSTYMHWYQQKPGKAPKLLIYSASHLESGVPSRFSGSGSGTDFTLTISSLQPEDFATYYCQQSNELPVTFGGGTKVEIK
notes: humanized
As for B1, the Kd in test [7] was 35.3 pM; in test [9], 32.8 pM. Also, the koff in test [7] was 9.49e-05 s⁻¹; in [9], 7.25e-05 s⁻¹. Besides, the values for the kon in test [7] and in [9] were 2.69e+06 M⁻¹ s⁻¹ and 2.21e+06 M⁻¹ s⁻¹, respectively. Moreover, the EC50 in test [8] came out at 110 pM; with human PD-L1-Fc protein [10] it was 0.0124 µg/mL. Further, the results for the IC50 with human PD-L1-Fc protein [11] and with human PD-L1-Fc protein [12] were 0.14 µg/mL and 0.382 µg/mL, respectively.

B2: Hu67F3G7-22 (antibody, V domains shown)
VH: B1 VH
VL: B1 VL with T2I, V3Q, L4M, A43Q
notes: humanized
In the case of B2, the Kd in test [7] worked out at 43.5 pM; in test [9], 32.6 pM. Also, the koff turned out to be 7.26e-05 s⁻¹ in [7] and 5.79e-05 s⁻¹ in test [9]. Further, the kon in test [7] worked out at 1.67e+06 M⁻¹ s⁻¹; in test [9], 1.78e+06 M⁻¹ s⁻¹. The results for the EC50 (in [8]; in the test with human PD-L1-Fc protein [13]) were 118 pM and 0.0078 µg/mL, respectively. The IC50 with human PD-L1-Fc protein [14] is 0.108 µg/mL; with human PD-L1-Fc protein [15] it was 0.126 µg/mL.

B3: Hu89C10H8-11 (antibody, V domains shown)
VH: EVQLVESGGGLVKPGGSLRLSCAASGFTFSNYWMTWIRQAPGKGLEWVASITNTGSSTFYPDSVKGRFTISRDNAKNSLYLQMNSLRAEDTAVYYCTRDTTIAPFDYWGQGTMVTVSS
VL: DIQMTQSPSSLSASVGDRVTITCKASQNLNEYLNWYQQKPGKAPKRLIYKTNTLQAGIPSRFSGSGSGIDYTLTISSLQPEDFATYYCSQYNSGNTFGQGTKLEIK
notes: humanized
In the case of B3, the Kd in [7] is 96.2 pM; in [9], 98.3 pM. Moreover, the values for the koff in test [7] and in test [9] were 6.73e-05 s⁻¹ and 5.54e-05 s⁻¹, respectively. Besides, the kon in [7] was 700000 M⁻¹ s⁻¹; in test [9] it was 564000 M⁻¹ s⁻¹. Further, the EC50 in test [16] came to 151 pM; with human PD-L1-Fc protein [10], 0.00878 µg/mL. In addition, the IC50 in the test with human PD-L1-Fc protein [17] was 0.11 µg/mL; in the test with human PD-L1-Fc protein [18], 0.275 µg/mL.

B4: Hu47C6A3-3 (antibody, V domains shown)
VH: QVQLQESGPGLVKPSETLSLTCTVSGYSITSDYAWNWIRQPPGKGLEWMGYIIYSGSTSYNPSLKSRITISRDTSKNQFSLKLSSVTAADTAVYYCARSTMIATNWFAYWGQGTLVTVSS
VL: DIQMTQSPSSLSASVGDRVTITCKASQDVSLAVAWYQQKPGKAPKLLIYWASTRHTGVPSRFSGSGSGTDFTLTISSLQPEDFATYYCQQHYITPWTFGGGTKVEIK
notes: humanized
Consider B4, for which the EC50 amounted to 188 pM in [19] and 0.015 µg/mL with human PD-L1-Fc protein [20]. This molecule showed a Kd in test [9] of 444 pM. This molecule had a koff in test [9] of 0.000966 s⁻¹. In test [9], this molecule returned a kon of 2.18e+06 M⁻¹ s⁻¹. The IC50 in the test with human PD-L1-Fc protein [17] is 0.029 µg/mL; with human PD-L1-Fc protein [18] it was 0.163 µg/mL.
